The target in assay [1] is Nα,Nε-diacetyl-L-Lys-D-Ala-D-Ala tripeptide. Kind of assay: ITC, 25 C, one-site model. Background: ITC needs no label: the signal is the heat of the interaction.
For assay [2] the target is unchanged. As to the kind of experiment: ITC, tripeptide injected into 10 uM glycopeptide, 25 C, one-site model.

By Kd is commonly meant the free concentration of one partner at which half of the binding sites on the other are occupied at equilibrium, for simple one-to-one binding. A low value points to a tighter complex. In assay [1], keratinimicin A (peptide) had a TΔS of 0.85 kcal/mol, a ΔG of -7.9 kcal/mol and a ΔH of -7 kcal/mol. Further, the Kd in assay [2] was found to be 1700 nM.

As for keratinimicin C (peptide), in assay [1], the TΔS was 0.2 kcal/mol, the ΔG was -7.6 kcal/mol and the ΔH is -7.4 kcal/mol. Moreover, in assay [2], the Kd worked out at 2800 nM.

In assay [1], vancomycin (peptide) yielded a TΔS of -0.96 kcal/mol, a ΔG of -7.6 kcal/mol and a ΔH of -8.6 kcal/mol. Further, the Kd in assay [2] was determined as 2700 nM.

These data come from patent US20230044467A1.
